Reference: patent US20230133118A1, “COMPOSITIONS AND METHODS FOR TREATING CANCER” (Adagene AG, priority 2020, published 2023)
Like-named read-outs stand apart in the source and are kept apart here.

[1] = G3, cols c1,3,5,7,9,11,13=0.03,0.1,0.3,1,3,5,10 mg/kg, c15 overall N=20
[2] = G4, cols c2,4,6,8,10,12,14=0.03,0.1,0.3,1,3,5,10 mg/kg, c16 overall N=20
[3] = G4, cols c2,4,6,8,10,12,14=0.03,0.1,0.3,1,3,5,10 mg/kg, last col overall N=20

Protocol: The phase 1a dose escalation study in US (ClinicalTrials.gov Identifier: NCT03707093) included accelerated titration (0.03, 0.1 and 0.3 mg/kg) and conventional dose escalation (1, 3, and 10 mg/kg). The phase 1a dose escalation study in China (ClinicalTrials.gov Identifier: NCT03802955) included accelerated titration (0.1 mg/kg) and conventional dose escalation (0.5, 1.5, 3, 5, and 10 mg/kg). […] Patients with advanced or metastatic solid tumors and/or non-Hodgkin lymphoma who were refractory or relapsed and exhausted all available therapies were enrolled and received treatment until disease progression, intolerable toxicity, withdrawal with consent, or for a maximum of 24 months.
Dose expansion studies were conducted for dose levels that were proven tolerable in Phase 1a and with evidence of clinical or biological activity. The dose levels studied in Phase 1 b were 3 mg/kg and 5 mg/kg.

Substance: ADG106: fully human agonistic anti-CD137 monoclonal IgG4 antibody; heavy chain SEQ ID NO: 10, light chain SEQ ID NO: 11
- TEAE white blood cell count increase (China update, 57 patients): 21%
- patients with G3 to 4 TEAEs (China update, 21 patients): 35%
- SAEs (all causes) (China update, in 11 patients): 15
- Lab abnormality Leukocyte ↓, patients [1]: 0
- Lab abnormality Neutrophil ↓, patients [1]: 0
- Lab abnormality Platelet ↓, patients [1]: 0
- TEAE Arthralgia, patients [1]: 0
- TEAE Constipation, patients [1]: 0
- TEAE Cough, patients [1]: 0
- TEAE Dehydration, patients [1]: 0
- TEAE Fever, patients [1]: 0
- TEAE Hypothyroidism, patients [1]: 0
- TEAE Myalgia, patients [1]: 0
- TEAE Peripheral edema, patients [1]: 0
- TEAE Weight ↓, patients [1]: 0
- Lab abnormality Hemoglobin ↓, patients [2]: 0
- Lab abnormality Leukocyte ↓, patients [2]: 0
- Lab abnormality Neutrophil ↓, patients [2]: 0
- Lab abnormality Platelet ↓, patients [2]: 0
- TEAE (preferred term not given), patients [3]: 0
- TEAE AST increase, patients [3]: 0
- TEAE Anemia, patients [3]: 0
- TEAE Appetite ↓, patients [3]: 0
- TEAE Arthralgia, patients [3]: 0
- TEAE Constipation, patients [3]: 0
- TEAE Cough, patients [3]: 0
- TEAE Dehydration, patients [3]: 0
- TEAE Diarrhea, patients [3]: 0
- TEAE Dyspnea, patients [3]: 0
- TEAE Fever, patients [3]: 0
- TEAE Hypothyroidism, patients [3]: 0
- TEAE Lymphopenia, patients [3]: 0
- TEAE Myalgia, patients [3]: 0
- TEAE Peripheral edema, patients [3]: 0
- TEAE Respiratory failure, patients [3]: 0
- TEAE Tumor pain, patients [3]: 0
- TEAE Vomiting, patients [3]: 0
- TEAE Weight ↓, patients [3]: 0
- >=G3 adverse events (Overall N=40): 15 n (%)
- Any Drug Related TEAEs (Overall N=40): 26 n (%)
- Any SAE (Overall N=40): 10 n (%)
- Any TEAEs Leading to Study Drug Discontinuation (Overall N=40): 5 n (%)
- Any TEAEs leading to Study Drug Dose Reduction or Interruption (Overall N=40): 1 n (%)
- Any TEAEs with Outcome of Death (Overall N=40): 2 n (%)
- Drug Related SAE (Overall N=40): 4 n (%)
- SAE leading to Drug discontinuation (Overall N=40): 3 n (%)
- Any DLTs (Overall N=40, first 2 cycles): 3 n (%)
- ≥Grade 4 TEAEs (Table 6 population): there was no≥Grade 4 TEAEs
- dose below which ≥G3 treatment related AEs were not observed (US and China trials): less than 3 mg/kg
- total dose at which ADG106 was well tolerated (US and China trials): below 500 mg
- dose at which DLT occurs, by body weight (US and Chinese patients): around 10 mg/kg
- total dose at which DLT occurs (US and Chinese patients): ~500 mg
- tolerability of flat Q3W IV dose of 300 mg and 400 mg (US trial): safe and well tolerated
- G3 ALP increase (US update): 2/35
- G3 GGT increase (US update): 3/35
- G3 or G4 decreases of leukocytes, platelets, and neutrophils (US update): There was no G3 or G4 decreases
- G4 drug-related TEAEs (US update): there was no G4 drug-related TEAEs
- Grade 3 AE anemia (US update): 2/35
- Grade 3 AE decreased appetite (US update): 2/35
- Grade 3 AE dyspnea (US update): 2/35
- Grade 3 AE fatigue (US update): 5/35
- Grade 3 AE tumor pain (US update): 1/35
- Grade 3 AE vomiting (US update): 1/35
- Grade 3 drug-related TEAE AST increase (US update): 1/35
- Grade 3 drug-related TEAE adrenal insufficiency (US update): 1/35
- Grade 3 drug-related TEAE anemia (US update): 1/35
- Grade 3 drug-related TEAE decreased appetite (US update): 1/35
- Grade 3 drug-related TEAE dyspnea (US update): 1/35
- Grade 3 drug-related TEAE fatigue (US update): 3/35
- Grade 3 drug-related TEAE influenza like symptoms (US update): 1/35
- DLTs observed (US update Nov. 30, 2020, 7 dose escalation cohorts 0.03-10 mg/kg Q3W): 2
- AE anemia, regardless of causality (US update, 35 patients): 11%
- AE arthralgia, regardless of causality (US update, 35 patients): 14%
- AE decreased appetite, regardless of causality (US update, 35 patients): 20%
- AE dehydration, regardless of causality (US update, 35 patients): 14%
- AE dizziness, regardless of causality (US update, 35 patients): 11%
- AE dyspnea, regardless of causality (US update, 35 patients): 11%
- AE fatigue, regardless of causality (US update, 35 patients): 29%
- AE nausea, regardless of causality (US update, 35 patients): 23%
- AE peripheral edema, regardless of causality (US update, 35 patients): 14%
- AE tumor pain, regardless of causality (US update, 35 patients): 11%
- AE vomiting, regardless of causality (US update, 35 patients): 14%
- ALT increased, all grade (US update, 35 patients): 23%
- AST increased, all grades (US update, 35 patients): 43%
- albumin decreased, all grade (US update, 35 patients): 57%
- hemoglobin decrease, all grades (US update, 35 patients): 89%
- lymphocytes decrease, all grades (US update, 35 patients): 57%
- patients discontinued due to adverse events (US update, 35 patients): 9%
- total bilirubin increased (US update, 35 patients): 6%
- SAEs related to the study treatment (US update, in 3 patients): 4
- SAEs (all causes) (US update, in 13 patients): 17
- TEAE anemia, regardless of causality (most common TEAEs (≥10%)): 10%
- TEAE arthralgia, regardless of causality (most common TEAEs (≥10%)): 10%
- TEAE decreased appetite, regardless of causality (most common TEAEs (≥10%)): 10%
- TEAE dyspnea, regardless of causality (most common TEAEs (≥10%)): 10%
- TEAE lymphopenia, regardless of causality (most common TEAEs (≥10%)): 15%
- TEAE respiratory failure, regardless of causality (most common TEAEs (≥10%)): 10%
- drug related death (up to 10 mg/kg): no drug related death
